Results taken from the supplement of paper PMC10065799, “High-throughput profiling of sequence recognition by tyrosine kinases and SH2 domains using bacterial peptide display” (eLife, 2023).

The sequences below were run on AncSZ (assay: phosphorylation enrichment, bacterial display (enrichment ratio); higher = better substrate or ligand; peptides without Tyr show the background).
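Throughout, for SH2 binding enrichment of the phosphorylated peptide, bacterial display: peptide library displayed on the E. coli surface as eCPX fusions, selected cells deep-sequenced, score is each peptide's frequency after selection divided by its frequency in the input.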
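Throughout, for phosphorylation enrichment, bacterial display: 11-residue human phosphosite peptides and single-mutation variants displayed on the E. coli surface, counted by deep sequencing, each peptide's frequency after selection divided by its frequency in the unselected input library; frequency after pTyr selection over input frequency; kinase dosed for 20-30% of maximal phosphorylation in three min.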

Compared with SFVMVYEGNAR [INSR_Y1038_G1035V], ASNFNYFYHRE [KCNA1_Y413_V408A] is lower in phosphorylation enrichment: 1.28 for the first, 0.95 for the second.

First: SVVVPYEPREV [TP53_Y220_P223R]
Second: SMGMKYLEEKN [ZAP70_Y451]
The phosphorylation enrichment of the first is higher: 0.813 for the first, 0.717 for the second.

Going from FFRDGYMPRQF [GSS_Y270_YF] to FVHDNYVIRRT [CPS1_Y1450], the phosphorylation enrichment rises from 0.634 to 0.772.

First: PPLMLYNPTTY [EGFR_Y270]
Second: TYGVVYRAKDK [CDK11B_Y453]
The phosphorylation enrichment of the first is lower: 0.518 for the first, 0.595 for the second.

Going from WPLKWYAPECI [ZAP70_Y506] to PQQLWYTHKKK [UBTF_Y207_E210K], the phosphorylation enrichment falls from 1.25 to 1.14.

First: TRVMEYISCLD [CLTCL1_Y1043_R1046C]
Second: VEDQFYCVDCF [FHL1_Y208_YF]
The phosphorylation enrichment of the first is lower: 1.18 for the first, 1.61 for the second.

Going from EVDETYVPKKF [ALB_Y521_E525K] to KDHRDYKFQPR [SOX9_Y172_P170R_YF], the phosphorylation enrichment falls from 0.947 to 0.543.

First: EVVGRYSLHNA [MLH1_Y183_V185L]
Second: GNKENYGLPQP [BUB1_Y538]
The phosphorylation enrichment of the first is lower: 0.478 for the first, 0.634 for the second.

First: GGQDVYGDFGG [Probound]
Second: SKEPFYVRCIK [MYO1D_Y586_YF]
The phosphorylation enrichment of the first is lower: 0.748 for the first, 0.939 for the second.

Going from ADKSAYLMGLN [MYH7_Y386] to FSDQVYRQRRK [TH_Y230], the phosphorylation enrichment rises from 0.625 to 0.853.

Compared with QMVGKYASSYM [AVPR2_Y124_M123K], TAPYNYSYIFK [RAB14_Y8] is higher in phosphorylation enrichment: 0.626 for the first, 1.03 for the second.

First: RALLNYIASKY [GSTA3_Y74_I71L]
Second: DVSVVYSEVKT [FCRL4_Y493]
The phosphorylation enrichment of the first is lower: 0.611 for the first, 0.991 for the second.

First: PLDGEYFTLPI [TP53_Y327_Q331P]
Second: MSRDVYSTDCY [NTRK2_Y702_Y706C]
The phosphorylation enrichment of the first is higher: 12.6 for the first, 0.993 for the second.

Going from FGGTVYHSPVS [PRC1_Y511] to IEEGTYGVAYR [CDK11B_Y449_V452A], the phosphorylation enrichment rises from 0.894 to 1.24.

Going from KEDSVYGSQSV [NFKB2_Y868_A867V] to FGSIMYEFVGK [SLC18A1_Y251_V249I], the phosphorylation enrichment rises from 0.829 to 1.12.

Going from ADCRYYTFPQM [GAMT_Y223_A224T] to ETRWNYHFEVV [GCNT3_Y267_K266N], the phosphorylation enrichment falls from 3.09 to 1.38.

For FFIMMYTGSSV [DNAJC13_Y1131_N1135S], the phosphorylation enrichment was 0.97.

Each sequence was assayed against Grb2 SH2 (UniProt P62993) (assay: SH2 binding enrichment of the phosphorylated peptide, bacterial display (enrichment ratio); higher = better substrate or ligand; peptides without Tyr show the background).
Sequence of Grb2 SH2 (P62993 whole entry, looked up): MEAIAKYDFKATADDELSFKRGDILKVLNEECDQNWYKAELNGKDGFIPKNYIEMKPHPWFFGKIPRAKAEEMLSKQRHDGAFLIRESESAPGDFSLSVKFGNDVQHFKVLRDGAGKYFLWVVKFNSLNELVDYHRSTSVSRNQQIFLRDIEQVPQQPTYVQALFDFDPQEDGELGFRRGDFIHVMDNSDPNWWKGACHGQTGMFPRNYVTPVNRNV

Compared with SFVMVYEGNAR [INSR_Y1038_G1035V], ASNFNYFYHRE [KCNA1_Y413_V408A] is lower in SH2 binding enrichment: 0.973 for the first, 0.695 for the second.

Compared with SVVVPYEPREV [TP53_Y220_P223R], SMGMKYLEEKN [ZAP70_Y451] is higher in SH2 binding enrichment: 0.829 for the first, 0.962 for the second.

Going from FFRDGYMPRQF [GSS_Y270_YF] to FVHDNYVIRRT [CPS1_Y1450], the SH2 binding enrichment falls from 1.02 to 0.655.

Going from PPLMLYNPTTY [EGFR_Y270] to TYGVVYRAKDK [CDK11B_Y453], the SH2 binding enrichment falls from 1.45 to 1.11.

First: WPLKWYAPECI [ZAP70_Y506]
Second: PQQLWYTHKKK [UBTF_Y207_E210K]
The SH2 binding enrichment of the first is higher: 0.83 for the first, 0.592 for the second.

First: TRVMEYISCLD [CLTCL1_Y1043_R1046C]
Second: VEDQFYCVDCF [FHL1_Y208_YF]
The SH2 binding enrichment of the first is lower: 0.626 for the first, 1.71 for the second.

Compared with EVDETYVPKKF [ALB_Y521_E525K], KDHRDYKFQPR [SOX9_Y172_P170R_YF] is higher in SH2 binding enrichment: 1.06 for the first, 1.19 for the second.

First: EVVGRYSLHNA [MLH1_Y183_V185L]
Second: GNKENYGLPQP [BUB1_Y538]
The SH2 binding enrichment of the first is higher: 0.802 for the first, 0.575 for the second.

Compared with GGQDVYGDFGG [Probound], SKEPFYVRCIK [MYO1D_Y586_YF] is lower in SH2 binding enrichment: 0.803 for the first, 0.8 for the second.

Going from ADKSAYLMGLN [MYH7_Y386] to FSDQVYRQRRK [TH_Y230], the SH2 binding enrichment falls from 0.88 to 0.634.

Compared with QMVGKYASSYM [AVPR2_Y124_M123K], TAPYNYSYIFK [RAB14_Y8] is higher in SH2 binding enrichment: 1.02 for the first, 1.4 for the second.

First: RALLNYIASKY [GSTA3_Y74_I71L]
Second: DVSVVYSEVKT [FCRL4_Y493]
The SH2 binding enrichment of the first is higher: 1.22 for the first, 0.789 for the second.

First: PLDGEYFTLPI [TP53_Y327_Q331P]
Second: MSRDVYSTDCY [NTRK2_Y702_Y706C]
The SH2 binding enrichment of the first is lower: 0.717 for the first, 1.15 for the second.

Compared with FGGTVYHSPVS [PRC1_Y511], IEEGTYGVAYR [CDK11B_Y449_V452A] is lower in SH2 binding enrichment: 0.851 for the first, 0.681 for the second.

Compared with KEDSVYGSQSV [NFKB2_Y868_A867V], FGSIMYEFVGK [SLC18A1_Y251_V249I] is lower in SH2 binding enrichment: 1.03 for the first, 0.867 for the second.

First: ADCRYYTFPQM [GAMT_Y223_A224T]
Second: ETRWNYHFEVV [GCNT3_Y267_K266N]
The SH2 binding enrichment of the first is higher: 1.05 for the first, 0.761 for the second.

FFIMMYTGSSV [DNAJC13_Y1131_N1135S] was tested, and the SH2 binding enrichment was 0.703.

The sequences below were run against c-Src SH2 in the same assay as above.

First: SFVMVYEGNAR [INSR_Y1038_G1035V]
Second: ASNFNYFYHRE [KCNA1_Y413_V408A]
The SH2 binding enrichment of the first is lower: 0.531 for the first, 0.697 for the second.

Compared with SVVVPYEPREV [TP53_Y220_P223R], SMGMKYLEEKN [ZAP70_Y451] is higher in SH2 binding enrichment: 0.415 for the first, 0.638 for the second.

Going from FFRDGYMPRQF [GSS_Y270_YF] to FVHDNYVIRRT [CPS1_Y1450], the SH2 binding enrichment falls from 0.509 to 0.416.

Compared with PPLMLYNPTTY [EGFR_Y270], TYGVVYRAKDK [CDK11B_Y453] is lower in SH2 binding enrichment: 0.74 for the first, 0.491 for the second.

Compared with WPLKWYAPECI [ZAP70_Y506], PQQLWYTHKKK [UBTF_Y207_E210K] is higher in SH2 binding enrichment: 0.501 for the first, 0.515 for the second.

First: TRVMEYISCLD [CLTCL1_Y1043_R1046C]
Second: VEDQFYCVDCF [FHL1_Y208_YF]
The SH2 binding enrichment of the first is lower: 0.545 for the first, 1.32 for the second.

Compared with EVDETYVPKKF [ALB_Y521_E525K], KDHRDYKFQPR [SOX9_Y172_P170R_YF] is higher in SH2 binding enrichment: 0.613 for the first, 0.947 for the second.

Going from EVVGRYSLHNA [MLH1_Y183_V185L] to GNKENYGLPQP [BUB1_Y538], the SH2 binding enrichment falls from 0.488 to 0.375.

Going from GGQDVYGDFGG [Probound] to SKEPFYVRCIK [MYO1D_Y586_YF], the SH2 binding enrichment falls from 0.509 to 0.413.

First: ADKSAYLMGLN [MYH7_Y386]
Second: FSDQVYRQRRK [TH_Y230]
The SH2 binding enrichment of the first is higher: 0.467 for the first, 0.421 for the second.

First: QMVGKYASSYM [AVPR2_Y124_M123K]
Second: TAPYNYSYIFK [RAB14_Y8]
The SH2 binding enrichment of the first is lower: 0.654 for the first, 13.7 for the second.

Going from RALLNYIASKY [GSTA3_Y74_I71L] to DVSVVYSEVKT [FCRL4_Y493], the SH2 binding enrichment rises from 0.768 to 1.11.

First: PLDGEYFTLPI [TP53_Y327_Q331P]
Second: MSRDVYSTDCY [NTRK2_Y702_Y706C]
The SH2 binding enrichment of the first is lower: 0.478 for the first, 0.932 for the second.

Going from FGGTVYHSPVS [PRC1_Y511] to IEEGTYGVAYR [CDK11B_Y449_V452A], the SH2 binding enrichment falls from 1.72 to 0.471.

Compared with KEDSVYGSQSV [NFKB2_Y868_A867V], FGSIMYEFVGK [SLC18A1_Y251_V249I] is higher in SH2 binding enrichment: 0.389 for the first, 0.676 for the second.

First: ADCRYYTFPQM [GAMT_Y223_A224T]
Second: ETRWNYHFEVV [GCNT3_Y267_K266N]
The SH2 binding enrichment of the first is higher: 3.2 for the first, 0.592 for the second.

FFIMMYTGSSV [DNAJC13_Y1131_N1135S] gave an SH2 binding enrichment of 0.455.

These sequences were tested against SHP2-C SH2 in the same assay as above.

Compared with SFVMVYEGNAR [INSR_Y1038_G1035V], ASNFNYFYHRE [KCNA1_Y413_V408A] is higher in SH2 binding enrichment: 0.942 for the first, 1.02 for the second.

First: SVVVPYEPREV [TP53_Y220_P223R]
Second: SMGMKYLEEKN [ZAP70_Y451]
The SH2 binding enrichment of the first is lower: 0.532 for the first, 0.86 for the second.

First: FFRDGYMPRQF [GSS_Y270_YF]
Second: FVHDNYVIRRT [CPS1_Y1450]
The SH2 binding enrichment of the first is higher: 0.784 for the first, 0.517 for the second.

First: PPLMLYNPTTY [EGFR_Y270]
Second: TYGVVYRAKDK [CDK11B_Y453]
The SH2 binding enrichment of the first is higher: 1.28 for the first, 0.718 for the second.

Going from WPLKWYAPECI [ZAP70_Y506] to PQQLWYTHKKK [UBTF_Y207_E210K], the SH2 binding enrichment falls from 0.817 to 0.702.

First: TRVMEYISCLD [CLTCL1_Y1043_R1046C]
Second: VEDQFYCVDCF [FHL1_Y208_YF]
The SH2 binding enrichment of the first is lower: 0.478 for the first, 1.64 for the second.

Going from EVDETYVPKKF [ALB_Y521_E525K] to KDHRDYKFQPR [SOX9_Y172_P170R_YF], the SH2 binding enrichment rises from 0.775 to 1.04.

First: EVVGRYSLHNA [MLH1_Y183_V185L]
Second: GNKENYGLPQP [BUB1_Y538]
The SH2 binding enrichment of the first is higher: 0.767 for the first, 0.677 for the second.

GGQDVYGDFGG [Probound] and SKEPFYVRCIK [MYO1D_Y586_YF] are the same in SH2 binding enrichment: 0.79 for the first, 0.79 for the second.

Going from ADKSAYLMGLN [MYH7_Y386] to FSDQVYRQRRK [TH_Y230], the SH2 binding enrichment falls from 0.793 to 0.446.

Compared with QMVGKYASSYM [AVPR2_Y124_M123K], TAPYNYSYIFK [RAB14_Y8] is higher in SH2 binding enrichment: 1.21 for the first, 1.79 for the second.

Compared with RALLNYIASKY [GSTA3_Y74_I71L], DVSVVYSEVKT [FCRL4_Y493] is higher in SH2 binding enrichment: 0.917 for the first, 11.9 for the second.

First: PLDGEYFTLPI [TP53_Y327_Q331P]
Second: MSRDVYSTDCY [NTRK2_Y702_Y706C]
The SH2 binding enrichment of the first is lower: 0.61 for the first, 0.719 for the second.

First: FGGTVYHSPVS [PRC1_Y511]
Second: IEEGTYGVAYR [CDK11B_Y449_V452A]
The SH2 binding enrichment of the first is higher: 2.81 for the first, 0.662 for the second.

First: KEDSVYGSQSV [NFKB2_Y868_A867V]
Second: FGSIMYEFVGK [SLC18A1_Y251_V249I]
The SH2 binding enrichment of the first is lower: 0.554 for the first, 0.731 for the second.

Going from ADCRYYTFPQM [GAMT_Y223_A224T] to ETRWNYHFEVV [GCNT3_Y267_K266N], the SH2 binding enrichment falls from 1.34 to 0.646.

Work on FFIMMYTGSSV [DNAJC13_Y1131_N1135S] yielded an SH2 binding enrichment of 0.851.
